Test results published in the supplement of paper PMC7125110.
± gives the standard error. Fewer inactive variants are shown than the library holds.

B1: glmS ribozyme (parent)
chain: AUAAAAGCGCCAGAACUACAGAAAUGUAGUUGACGAGGAGGAGGUUUAUCGAAUUUUCGGCGGAUGCCUCCAAA

Columns and labels:
Conditions in all cases: with glucosamine-6-phosphate
glucosamine-6-phosphate [1] = variants of: B1; assay: self-cleavage kobs at 40 uM GlcN6P; higher = faster cleavage; RNA array
In short: (§1)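 On sequenced MiSeq chips, barcoded ribozyme variants were made in situ by E. coli RNA polymerase and followed at 37 °C through a hybridised Cy3 probe. Glucosamine-6-phosphate was flowed in at 40 μM to 10 mM in HEPES/KCl/Mg(OAc)2 buffer. Exponential fits to normalised per-tile medians gave kobs, and weighted Michaelis–Menten fits gave kcat and KM.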

glucosamine-6-phosphate [2] = variants of: B1; assay: self-cleavage kobs at 160 uM GlcN6P; higher = faster cleavage; RNA array
In short: as §1

glucosamine-6-phosphate [3] = variants of: B1; assay: self-cleavage kobs at 640 uM GlcN6P; higher = faster cleavage; RNA array
In short: as §1

glucosamine-6-phosphate [4] = variants of: B1; assay: self-cleavage kobs at 10000 uM GlcN6P; higher = faster cleavage; RNA array
In short: as §1

glucosamine-6-phosphate [5] = variants of: B1; assay: self-cleavage kobs at 2500 uM GlcN6P; higher = faster cleavage; RNA array
In short: as §1

C50G G63C C71U
self-cleavage kobs at 40 uM GlcN6P (glucosamine-6-phosphate [1]): 7.02e-05 ± 2.9e-05 s⁻¹

A33C G35C
self-cleavage kobs at 40 uM GlcN6P (glucosamine-6-phosphate [1]): < 1e-05 s⁻¹ | self-cleavage kobs at 160 uM GlcN6P (glucosamine-6-phosphate [2]): < 1e-05 s⁻¹ | self-cleavage kobs at 640 uM GlcN6P (glucosamine-6-phosphate [3]): < 1e-05 s⁻¹ | self-cleavage kobs at 10000 uM GlcN6P (glucosamine-6-phosphate [4]): < 1e-05 s⁻¹

A15U A36G
self-cleavage kobs at 40 uM GlcN6P (glucosamine-6-phosphate [1]): < 1e-05 s⁻¹ | self-cleavage kobs at 640 uM GlcN6P (glucosamine-6-phosphate [3]): < 1e-05 s⁻¹ | self-cleavage kobs at 10000 uM GlcN6P (glucosamine-6-phosphate [4]): < 1e-05 s⁻¹

G13U G38A A39U
self-cleavage kobs at 40 uM GlcN6P (glucosamine-6-phosphate [1]): < 1e-05 s⁻¹

C34G A42G
self-cleavage kobs at 40 uM GlcN6P (glucosamine-6-phosphate [1]): < 1e-05 s⁻¹ | self-cleavage kobs at 640 uM GlcN6P (glucosamine-6-phosphate [3]): < 1e-05 s⁻¹ | self-cleavage kobs at 2500 uM GlcN6P (glucosamine-6-phosphate [5]): < 1e-05 s⁻¹ | self-cleavage kobs at 10000 uM GlcN6P (glucosamine-6-phosphate [4]): < 1e-05 s⁻¹

U30G A36G U54G
self-cleavage kobs at 40 uM GlcN6P (glucosamine-6-phosphate [1]): < 1e-05 s⁻¹ | self-cleavage kobs at 10000 uM GlcN6P (glucosamine-6-phosphate [4]): < 1e-05 s⁻¹

A12C C16G A36U
self-cleavage kobs at 40 uM GlcN6P (glucosamine-6-phosphate [1]): < 1e-05 s⁻¹ | self-cleavage kobs at 10000 uM GlcN6P (glucosamine-6-phosphate [4]): < 1e-05 s⁻¹

C8G G37C
self-cleavage kobs at 40 uM GlcN6P (glucosamine-6-phosphate [1]): < 1e-05 s⁻¹ | self-cleavage kobs at 640 uM GlcN6P (glucosamine-6-phosphate [3]): < 1e-05 s⁻¹ | self-cleavage kobs at 10000 uM GlcN6P (glucosamine-6-phosphate [4]): < 1e-05 s⁻¹

A14U C16U G29U C50A G62U
self-cleavage kobs at 40 uM GlcN6P (glucosamine-6-phosphate [1]): < 1e-05 s⁻¹

U56C C61G
self-cleavage kobs at 40 uM GlcN6P (glucosamine-6-phosphate [1]): < 1e-05 s⁻¹ | self-cleavage kobs at 2500 uM GlcN6P (glucosamine-6-phosphate [5]): < 1e-05 s⁻¹ | self-cleavage kobs at 10000 uM GlcN6P (glucosamine-6-phosphate [4]): < 1e-05 s⁻¹

A42G C67G
self-cleavage kobs at 40 uM GlcN6P (glucosamine-6-phosphate [1]): 0.000618 ± 0.00013 s⁻¹ | self-cleavage kobs at 160 uM GlcN6P (glucosamine-6-phosphate [2]): 0.00112 ± 0.00024 s⁻¹ | self-cleavage kobs at 640 uM GlcN6P (glucosamine-6-phosphate [3]): 0.00232 ± 0.00045 s⁻¹ | self-cleavage kobs at 2500 uM GlcN6P (glucosamine-6-phosphate [5]): 0.00814 ± 0.0014 s⁻¹ | self-cleavage kobs at 10000 uM GlcN6P (glucosamine-6-phosphate [4]): 0.0123 ± 0.0031 s⁻¹

C16G G63A
self-cleavage kobs at 40 uM GlcN6P (glucosamine-6-phosphate [1]): < 1e-05 s⁻¹ | self-cleavage kobs at 10000 uM GlcN6P (glucosamine-6-phosphate [4]): < 1e-05 s⁻¹

G29A C70U
self-cleavage kobs at 40 uM GlcN6P (glucosamine-6-phosphate [1]): 0.000121 ± 1.3e-05 s⁻¹ | self-cleavage kobs at 160 uM GlcN6P (glucosamine-6-phosphate [2]): 0.000201 ± 2.9e-05 s⁻¹ | self-cleavage kobs at 640 uM GlcN6P (glucosamine-6-phosphate [3]): 0.000483 ± 6e-05 s⁻¹ | self-cleavage kobs at 10000 uM GlcN6P (glucosamine-6-phosphate [4]): 0.0021 ± 0.0006 s⁻¹

U45C U69G C71U
self-cleavage kobs at 40 uM GlcN6P (glucosamine-6-phosphate [1]): < 1e-05 s⁻¹

A12U U49C
self-cleavage kobs at 40 uM GlcN6P (glucosamine-6-phosphate [1]): < 1e-05 s⁻¹ | self-cleavage kobs at 2500 uM GlcN6P (glucosamine-6-phosphate [5]): < 1e-05 s⁻¹

A15C G62A
self-cleavage kobs at 40 uM GlcN6P (glucosamine-6-phosphate [1]): < 1e-05 s⁻¹ | self-cleavage kobs at 160 uM GlcN6P (glucosamine-6-phosphate [2]): < 1e-05 s⁻¹ | self-cleavage kobs at 640 uM GlcN6P (glucosamine-6-phosphate [3]): < 1e-05 s⁻¹ | self-cleavage kobs at 2500 uM GlcN6P (glucosamine-6-phosphate [5]): < 1e-05 s⁻¹ | self-cleavage kobs at 10000 uM GlcN6P (glucosamine-6-phosphate [4]): < 1e-05 s⁻¹

A12G A14G U30A U46C U49C U57C
self-cleavage kobs at 40 uM GlcN6P (glucosamine-6-phosphate [1]): < 1e-05 s⁻¹ | self-cleavage kobs at 2500 uM GlcN6P (glucosamine-6-phosphate [5]): < 1e-05 s⁻¹ | self-cleavage kobs at 10000 uM GlcN6P (glucosamine-6-phosphate [4]): < 1e-05 s⁻¹

G37C C50U G66U
self-cleavage kobs at 40 uM GlcN6P (glucosamine-6-phosphate [1]): < 1e-05 s⁻¹ | self-cleavage kobs at 10000 uM GlcN6P (glucosamine-6-phosphate [4]): < 1e-05 s⁻¹

G32U A36C C68A
self-cleavage kobs at 40 uM GlcN6P (glucosamine-6-phosphate [1]): < 1e-05 s⁻¹ | self-cleavage kobs at 10000 uM GlcN6P (glucosamine-6-phosphate [4]): < 1e-05 s⁻¹

G43C G59C
self-cleavage kobs at 40 uM GlcN6P (glucosamine-6-phosphate [1]): < 1e-05 s⁻¹ | self-cleavage kobs at 160 uM GlcN6P (glucosamine-6-phosphate [2]): < 1e-05 s⁻¹ | self-cleavage kobs at 640 uM GlcN6P (glucosamine-6-phosphate [3]): < 1e-05 s⁻¹ | self-cleavage kobs at 2500 uM GlcN6P (glucosamine-6-phosphate [5]): < 1e-05 s⁻¹ | self-cleavage kobs at 10000 uM GlcN6P (glucosamine-6-phosphate [4]): < 1e-05 s⁻¹

G29U C71A
self-cleavage kobs at 40 uM GlcN6P (glucosamine-6-phosphate [1]): 5.78e-05 ± 1.4e-05 s⁻¹ | self-cleavage kobs at 640 uM GlcN6P (glucosamine-6-phosphate [3]): 0.000172 ± 4.8e-05 s⁻¹ | self-cleavage kobs at 2500 uM GlcN6P (glucosamine-6-phosphate [5]): 0.000288 ± 0.00011 s⁻¹ | self-cleavage kobs at 10000 uM GlcN6P (glucosamine-6-phosphate [4]): 0.00103 ± 0.00015 s⁻¹

C11G A64U C67A
self-cleavage kobs at 40 uM GlcN6P (glucosamine-6-phosphate [1]): < 1e-05 s⁻¹ | self-cleavage kobs at 10000 uM GlcN6P (glucosamine-6-phosphate [4]): < 1e-05 s⁻¹

A6G G44U G62U G63A U69A
self-cleavage kobs at 40 uM GlcN6P (glucosamine-6-phosphate [1]): < 1e-05 s⁻¹ | self-cleavage kobs at 160 uM GlcN6P (glucosamine-6-phosphate [2]): < 1e-05 s⁻¹ | self-cleavage kobs at 640 uM GlcN6P (glucosamine-6-phosphate [3]): < 1e-05 s⁻¹ | self-cleavage kobs at 2500 uM GlcN6P (glucosamine-6-phosphate [5]): < 1e-05 s⁻¹ | self-cleavage kobs at 10000 uM GlcN6P (glucosamine-6-phosphate [4]): < 1e-05 s⁻¹
